Source: the nanobody polyreactivity screen of Harvey et al. (2022)

experiment: yeast display, Sf9 membrane polyspecificity reagent, FACS + sequencing; frameworks hold sequencing errors
Procedure, shortened: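 Synthetic nanobody libraries on Saccharomyces cerevisiae BJ5465 were galactose-induced for 36–48 hours, stained 1 hour at 4 °C with 10% biotinylated, detergent-solubilized Sf9 membrane reagent and enriched on streptavidin microbeads. FACS then separated cells into low and high (top ~1%) gates by anti-HA (expression) and streptavidin (reagent binding) fluorescence. Genes were colony-PCR amplified, MiSeq 2 × 250 sequenced and CDR-length filtered. A clone's polyreactivity label is that of its gate of origin.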

Row | Sequence | polyreactivity (PSR sort gate)
1 | QVQLVESGGGLVQAGGSLRLSCAASGSTFAVYAMGWYRQAPGKERELVASITDGGASTYYADSVKGRFTISRDNAKNTVYLQMNSLKPEDTAVYYCAADTYPTTSEVDYWGQGTQVTVSS | low polyreactivity
2 | QVQLVESGGGLFQAGGSLRLSCAASGRIFSCYAMGWYRQAPGKERELVAAITVRGSTYYADSVKGSFTISRDNAKNTVYLQMNSLKPEDTAVYYCAAGGYPGTTYYGYDFWGQVTQVTVSS | low polyreactivity
3 | QVQLVESGGGLVQAGGSLRLSCAASGSIFYTYAMGWYRQAPGKERELVAVISYGGGRTYYADSVKGRFTISRDNAKNTVYLQMNSLKPEDTAVYYCAASYSFYAFSVPYYYWGQGSQVTVSS | high polyreactivity
4 | QVQLVESGGGLVQAGGSLRLSCAASGRIFRRYAMGWYRQAPGKERELVAAISSRGGSTYYADSVKGRFTISRDNAKNTVYLQMNSLKPEDTAVYYCNADVSASEYDYWGQGTQVTVSS | high polyreactivity
5 | QVQLVDSGGGLVQAGASLRLSCAASGSTLSYYTMGWYRQAPGKERELVAAISWRGGSTYYADSVKGRFTISRDNAKNTVYLQMNSLKPEDTAVYYCATAIRGSPDSSLYYYWGQGTQVTLSS | high polyreactivity
6 | QVQLVESGGGLVQAGGSLRLSCAASGRTFVVNAMGWYRQAPGKEREFVAAISYRGDSTYYADSVKGRFTISRDNAKNTVYLQMNSLKPEDSAVYYCAARVLGPGRRYYYWGQGTQVTLSS | high polyreactivity
7 | QVQLVESGGGLVQAGGSLRLSCAASGSTFGYNAMGWYRQAPGTERELVAAISSRGGSTYYADSVKGRFTISRDNAKNTVYLQMNSLKPDDTAVYYCAADPPNGAEYYWGQGTQVTGSS | high polyreactivity
8 | QVQLVESGGGLVQAGGILRLSCAASGIIFQQYAMGWYRQAPGKERELVAAITYSGDGTYYADSEKGRFTISRDNAKNTVYLQMNSLKPEDTAVYYCNTDRKSRWARYEYWGQGTQVTVSS | low polyreactivity
9 | QVQHVESGGGLVQAGGSLRLSCAASGFIIQGNAMGWYRQAPGKERELVAAISSSVSTYYADSVKGRFTISRDNAKNTVYLQMNSLKPEDTAVYYCNAGFPLSLWLGDYWGQGTQVTVSS | low polyreactivity
10 | QVQLVESGGGLVQAGGSLRLSCAASGRIFRQNVMGWYRQAPGKERELVAGISRSGSGTRYADSVKGRFTISRDNAKNTVYLQMNSLKPEDTAVYYCNTLVPFSTWRYGYWGQGTQVTVSS | high polyreactivity
11 | QVQLQGSGGGLVQAGGSLRLSCAASGYIFQNVPMGWNRQAPCKERELVAGIDNGTSTNYADSVNGRFTISRDNAKNTVYLQMNSLKPEDTAVYYCAAAGQADDTLGYWGQGTQVTVSS | low polyreactivity
12 | QVQLVESGGGLVQAGGSLRLSCAASGRIFFVYAMGWYRQAPGKERELVASITGGGSTNYADSVKGRFTISRDNAKNTVYLQMNSLKPEDTAVYYCGADIHSTRVFPEYPSGYDYWGQGTQVTVSS | low polyreactivity
13 | QVQLVESVGDLVQAGGSLRLSCAASGRNFPVYAMGWYRQAPGKERELVAAITFRSGSTYYADSVKGRFTISRDNAKNTVYLQMNSLKPEDTAVYYCAADFSVQYVGYSAIEGYWGQGTQVTVSS | high polyreactivity
14 | QVQLVESGGGLVQAGGSLRLSCAASGSNFGWYTMGWYRQAPGKERELVAAITSRGTRTSYADSVKGRFTISRDYAKNTVYLQMNSLKPEDTAVYYCAARVFRGLGEYYWGQGTQVTVSS | high polyreactivity
15 | QVQLVESGGGLVQAGGSLRLSCAASGSIFPHYAMGWNRQAPGKERELVAAISSGGRTYYADSVKGRFTISRDNAKNTVYLQMNSLKPEDTAVYYCAARRIARKGYGYWGQGTQVTVSS | high polyreactivity
16 | QVQLVESGGGLVQAGGSLRLSCAASGYIFGWYAMGWYRQAPGKERELVATIDWSGDSTYYADSVKGRFTISRDNAKNTVYLQMNSLKPEDTAVYYCAVGYSYYPSDEFDYWGQGTQVTVSS | low polyreactivity
17 | QVQLVESGGGLVQAGGSLRLSCAASGYSFYKYAMGWYRQAPGKERELVAAISYSGGSTYYADSVKGRFTISRDNAKNTVYLQMNSLKPEDTAVYYCAAVGATKGLRYGYWGQGTQVTVSS | low polyreactivity
18 | QVQLVESGGGLVQAGGSLRLSCAASGSIFHQYVMGWYRQAPGKERELVAAISIRGTRTYYADSVKGRFTISRDNAKNTVYLQMNSLKPEDTAVYYCAVSGGRLQGDYWGQGTQVTVSS | high polyreactivity
19 | QVQLVESRGGLVQAGGSLRLSCAASGRIFWVNAMGWYRQAPGKERELVAVISRGGSTTYADSVKGRFTISRDNAKNTVYLQMNSLKPEDTAVYYCAADAYRHAFLYYGYDYWGQGTQVTVSS | low polyreactivity
20 | QVQLVESGGGLVQAGGSLRLSCAASGSILGYYAMGWYRQEPGKERELVAAISGRGGSTYYADSVKGRFTISRDNAKNSVYLHMNSLKPEDTAVYYCAVVWGSYYWGQGGGEYWGQGTQVTVSS | high polyreactivity
21 | QVQLVESGGGLVQAGGSLRLSCAPSGSTINQYAMGWYRQAPGKESELVAAITRRGGSTYYADSVKGRFTISRDNAKNTVYLQMNSLKPEDTAVYYCAAAYPYTTVSYDYWGQGTQVTVSS | high polyreactivity
22 | QVQLVESGGGLVQAGGSLRLSCAASGIIFRPNAMGWYRQEPGKERELVAAISRNGVRTYYSDSVKGRFTISRDNAKITVYLQMNSLKPEDTAVYYCNRDYNAAYDWGEGTQVTVSS | high polyreactivity

Row | Sequence | polyreactivity (PSR sort gate)
23 | QVQLVESGGGLVQAGGSLRLSCAASGFIFGYNAMGWYRQEPGKERELVARIRYRGARTYYADSVKGRFTISRDNAKNTVYLQMNSLKPEDTAVYYCAAVASWPGGYDYWGQGTQVTVSS | high polyreactivity
24 | QVQLVESGGGLVQAGGSLRLSCAASGRTFYRYAMGWYRQAPGKERELVARITSGSSTNYADSVKGRFTISRDNAKNTVYLQMNSLKPEDTAVYYCAKDPRPYLDYDYWGQGTQVTVSS | low polyreactivity
25 | QVQLVESGGGLVQAGGSLRLSCAASGSTFYPYSMGWYRQAPGKERELSTYADSVKGRFTISRDNAKNSVYLQMNSLKPEDTAVYYCAALHWRWYDYWGQGTQVTVSS | low polyreactivity
26 | QVQLVESVGGLVQAGGSLRLSCSASGITFSYNAMGWYRQAPGKERELVAAISDIGGSTYYADSVKGRFTISRDNAKNTVYLQMNSLKPEDTAVYYCAADEYYQDEYDYWGQGTQVTVSS | low polyreactivity
27 | QVQLVESAGGLVQAGGSLSLSCAATGSILQEYAMGSYRQAPGTERELVAAITRRGGNTYYADSVKGRFTISRDNAKNTVYLQMNSLKPEDTAVYYCAAPHGKYSWQYEYWGQGTQVTVSS | low polyreactivity
28 | QFQLVESGGGLVQAGGSLRLSCAASGRIFFSNAMGWYRQAPGKERELVASITGGDDTNYADSVKGRFTISRDNAKNSVYLQMNSLKPEDTAFYYCAARAIPSYRWVYRFAPKYDYWGQGTQVTVSS | low polyreactivity
29 | QVQLVESGGGLVQAGGSLRLSCAASGLIFKYYAMGWYRQAPGKERELVASISRGGVTTYYADSVKGRFTISRDNAKNTVYLQMNSLKPEDTAVYYCAARFRYAPFYHWGQGTQVTVSS | high polyreactivity
30 | QVQLVESGGGLVQAGVSLPLICAASGFTIAYYTMGWYRQAPGKERELVAAISRRGSSTYYADSVMGRFTISRDNAKNTVDLQMNSLKPEDTAVYYCNKYSVLTPGYYYWGQGTQVTVSS | high polyreactivity
31 | QVQLVESGGGLVQAGGSLRLSCAASGSIFYAYALGWYRQAPGKERELVAVISRGGITNYADSVKGRFTISRDNAKNTVYLQMNSLKPEDNAVYYCAAATSACGYLRRYGYWGQGTQVTVSS | low polyreactivity
32 | QVQLVESGGGLVQAGGSLRLRCAASGIIFDGNVMGWYSQAPGKEREFVASISISGGSTSYADSVKGRFTISRDNAKNTVYLQMNSLNPEDTAVYYCNTDVGYGRVWRWRYHGDYWGQGTQVTVSS | low polyreactivity
33 | QVQLVESGGGLVQAGGSLRLSCAASGSIFKSYAMGWYRQAPGKERELVAAITYRGGSTYYADSVKGRFTISRDNAKNTVYLQMNSLKPEDTAVYYCAKDQHRYYQVWGDYWGQGTQVTVSS | high polyreactivity
34 | QVQLVESGGGLVQAGGRLRLSCAASGITFWNYAMGWYRQAPGKETELVAAITGGSTYYADSVKGRFTISRDYAKNTVYLQMNSLKPEDTAVYYCNADSLFEYWDYDYWGQGTQVTVSS | low polyreactivity
35 | QVQLVESGGGLVQAGGSLRLSCAASGFTFGYNAMGRYRQAPGKERELVAAITSGGSTNYADSVKGRFTISRDNAKNTVYLQMNSLKPEDNAVYYCATGVRPWRKKPVEFYHWGQGTQVTVSS | low polyreactivity
36 | QVQLVESGGGLVQAGGSLRLSCAASGFTFPNYAMGWSRQAPGKERELVAAITSGGGRTNYSDSVKGRFTISRDTAKNTVYLQMNSLKPEDTAVYYCAAEYRYDYRVYSHLHVWRYDYWGQGTQVTVSS | low polyreactivity
37 | QVQLVESGGRLVQAGGSLRLSCAASGSIFFSNAMGWYRQAPGKERELVAAITSTGGSTYYADSVKGRFTISRDNAKNTVYLQMNSLKPEDTAVYYCAAASRRGYYYWGQGTQVTVSS | high polyreactivity
38 | QVQLVESGGGLVQAGGSLRLSCAASGRIFRRYAMGCYIQAPGKERELVAGITGSGTSTYYADSVKGRFTISRDNAKNTVYLQMNSLKPEDTAVYYCAADRGRGYRYNYWGQGTQVTVSS | high polyreactivity
39 | QVQLVESGGVLVQAGGSLRLSCAASGFTFWLYAMGWYRQAPGKERELVAAISSGGGSTYYADSVKGRFTNSRDNAKNTVYLQMNSLKPEDTAVYYCNRYYYYGYDWGQGTQVTVSS | high polyreactivity
40 | QVQLVESGGGLVQAGGSLRLSCAASGGIFASNAMGWYRQAPGKERELVATITRGGSTNYADSVKGRFTISRDNAKNTVYLQMNSLKPEDTAVYYCAARFYSRAFWTAYYYWGQGTQVTVSS | high polyreactivity
41 | QVQLVESGGGLVQAGGSLRLSCAASGFTISQYAMGWYRQAPGKERELVAAISASGGRTYYADSVKGRFTISRDNAKNTVYLQMNSLKPDDTAVYYCAAKLYVSGGRYWYDYWGQGTQVTVSS | high polyreactivity
42 | QVQLVESGGGLVQAGGSLRLSCAASGRTFLHNAMGWYRQAPGKERELVAAITWSGGSTYYADSVKGRFTISRDNAKNTVYLQMNSLKPEDTAVYYCNARHRYYRYGYWGQGTQVTVSS | high polyreactivity
43 | QVQLVESGGGLVQAGGSLRLSCDASGSTFWFNDMGWYRQAPGKERELVAAIDWSDGSTYYADSVKGRFTISRDNAKNTVYLQMNSLKPEDTAVYFCAADHRYSARRSVPTLYDYWGQGTQVTVSS | low polyreactivity
